Data taken from patent publication US20240018268A1 (JUNO THERAPEUTICS, published 2024).

Assays:
[1] = target: T1, anti-CD19 (FMC63-derived) chimeric antigen receptor (CAR), expressed on T cells; experiment: flow cytometry, CAR T cells spiked into human PBMCs
T1 construct: Whole CAR on the surface of transduced human T cells/PBMCs, co-expressed with EGFRt from the same construct (T2A); treated here as one molecule; also called anti-CD19 (FMC63) CAR; FMC63-derived CAR
Method: The anti-CD19 CAR expressing cells were spiked in to a sample of cells containing healthy human peripheral blood mononuclear cells (PBMCs). The resulting cell compositions were incubated with different concentrations of the anti-CD19 FMC63 scFv-specific anti-ID B1 or anti-ID B2 antibodies. As a control, samples of each condition were also incubated with a concentration of anti-EGFR antibody, capable of detecting the EGFRt surrogate marker on the transduced cells. Control samples included those only containing the PBMCs without the addition of added CAR− expressing T cells. Geometric mean fluorescence intensity (MFI) was quantified in positively labeled cells to assess antibody staining.

[2] = target: T2, human Fc-fusion protein containing the FMC63-derived scFv portion of the CAR (biotinylated ECD fusion protein … (biotinylated (capture form))); sulfo-tagged (detection form)); experiment: bridge assay, biotinylated scFv-Fc on streptavidin plate, sulfo-tagged scFv-Fc detection, ECL (MSD)
T2 construct: also called FMC63-derived Fc-scFv fusion; not shown: human Fc
Text: A bridge anti-therapeutic antibody (ATA) assay was developed to detect the presence or absence of antibodies, in serum of treated subjects, recognizing administered anti-CD19 CARs. Certain anti-ID antibodies described in Examples 1-3 were used as positive controls and to validate the ability of the assay to detect the presence of such antibodies.
A biotinylated human Fc-fusion protein (biotinylated ECD fusion protein) was used, containing an scFv portion of the CAR with variable regions derived from FMC63 (set forth in SEQ ID NO:34). The biotinylated ECD fusion protein was added to streptavidin-coated wells; the plates were incubated under conditions to allow binding of the fusion protein, and washed. To the biotinylated fusion protein-coated wells, various concentrations of anti-ID B-1 or anti-ID B-2 were added to the wells, and allowed to incubate under conditions to allow specific binding of the antibody. After washing, a sulfo-tagged version of the ECD fusion protein (sulfo-ECD fusion protein) containing the FMC63-derived Fc-scFv fusion. The wells were washed and an electrochemiluminescence (ECL) signal was read on a Meso Scale Discovery (MSD) Sector Imager.

[3] = target: T3, anti-CD19 (SJ25C1-derived) chimeric antigen receptor (CAR), expressed on T cells or Jurkat cells (human, UniProt P10747 153-179; P10747 180-220; P20963 52-163, limits assumed); experiment: flow cytometry, biotin-conjugated antibody and PE-streptavidin on CAR-transduced cells
T3 construct: domain: transmembrane domain;domain: intracellular signaling domain;domain: signaling domain; Whole CAR on the surface of transduced human T cells, PBMCs or Jurkat cells; also called anti-CD19 (SJ25C1) CAR; SJ25C1-derived CAR
T3 sequence (P10747 other isoform, or with tags, fused parts or gaps mutant limits assumed): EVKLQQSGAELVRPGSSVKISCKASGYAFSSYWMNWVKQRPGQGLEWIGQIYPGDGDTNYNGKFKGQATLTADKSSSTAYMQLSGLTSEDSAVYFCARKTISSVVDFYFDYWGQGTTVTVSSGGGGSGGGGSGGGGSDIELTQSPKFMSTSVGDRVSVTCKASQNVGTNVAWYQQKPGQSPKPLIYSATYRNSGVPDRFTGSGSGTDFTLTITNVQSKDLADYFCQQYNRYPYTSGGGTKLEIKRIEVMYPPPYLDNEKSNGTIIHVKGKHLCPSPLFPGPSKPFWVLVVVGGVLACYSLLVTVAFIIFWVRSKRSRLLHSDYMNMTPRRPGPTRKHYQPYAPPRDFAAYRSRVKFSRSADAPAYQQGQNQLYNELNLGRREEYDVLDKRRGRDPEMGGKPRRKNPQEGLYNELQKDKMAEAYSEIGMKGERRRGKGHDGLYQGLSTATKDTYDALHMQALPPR
Method: Hybridoma fusion clones were generated and 12 candidate clones were further characterized by flow cytometry. Peripheral blood mononuclear cells were isolated from human subjects and cells were activated and transduced with a viral vector encoding the anti-CD19 CAR. For flow cytometry, about 1×10⁶ cells per 100 μL were incubated with 10 μL of biotin-conjugated anti-idiotype antibody followed by staining with a PE-conjugated streptavidin. As a positive control for surface expression of the CAR, cells were stained with an anti-EGFR antibody to verify expression of the EGFRt transduction marker, which was a surrogate of CAR expression. […] Cells were gated on CD3⁺ CD4⁺/CD8⁺ PBMCs and fluorescence signal was determined. […] To confirm the antibodies were specific for the scFv derived from the anti-CD19 antibody derived from FMC63, similar experiments were performed on cells transduced with an anti-CD19 CAR derived from SJ25C1 as described in Example 1. […] Anti-idiotype antibody clones B-1 (anti-ID B-1) and B-2 (anti-ID B-2) were selected for further characterization.

[4] = target: T1, anti-CD19 (FMC63-derived) chimeric …; experiment: inferred from a T cell proliferation assay with plate-bound antibody
Method: For proliferation studies, engineered T cells were labeled with 50 nM carboxyfluorescein succinimidyl ester (CFSE) or CELL TRACE VIOLET (CTV) dye. Where relevant, expression of the surrogate EGFRt marker was detected by staining with an anti-EGFR antibody. Cells were seeded at a fixed number of cells per well in wells previously coated with 10, 5, 2.5, or 1.25 μg/ml of OKT3 (anti-CD3 antibody), or of anti-idiotype antibodies recognizing SJ25C1 and FMC63 (anti-ID A-land anti-ID B-1, respectively) in sodium carbonate/bicarbonate buffer (pH 9.0) overnight. Cells seeded in wells with no antibody coating were included as negative controls. The cells were cultured for 4 days and assessed for viability, proliferation, and expression of CD69 and CD25.
Proliferation of anti-CD19 (SJ25C1 or FMC63) CAR− expressing T cells was assessed by dye dilution using flow cytometry. The percent of CD3⁺/CFSE® w cells observed following stimulation of anti-CD19 (SJ25C1) CAR− expressing T cells with anti-ID A-1 is shown in FIG. 2A. The percent of CD3⁺/EGFR+/CFSE® W cells observed following stimulation of anti-CD19 (FMC63) CAR− expressing T cells with anti-ID B-1 is shown in FIG. 2B. […]

[5] = target: recombinant soluble extracellular domain (ECD) portion of the anti-CD19 (SJ25C1-derived) CAR (human); experiment: ELISA on the recombinant soluble ECD portion; A-1 is the one named clone of the five
Sequence of recombinant soluble extracellular domain (ECD) portion of the anti-CD19 (SJ25C1-derived) CAR (human) (chain, as listed by the source): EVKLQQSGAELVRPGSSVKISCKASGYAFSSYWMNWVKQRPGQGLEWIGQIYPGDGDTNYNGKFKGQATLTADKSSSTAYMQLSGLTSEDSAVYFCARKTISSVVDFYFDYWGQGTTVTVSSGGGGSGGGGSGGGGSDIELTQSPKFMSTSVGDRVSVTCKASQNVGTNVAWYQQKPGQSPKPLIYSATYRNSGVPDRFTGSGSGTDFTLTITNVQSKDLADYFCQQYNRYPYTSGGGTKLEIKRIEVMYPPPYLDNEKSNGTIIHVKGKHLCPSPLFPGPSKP

Binder	binding result [1]	binding result [2]	binding result [3]	binding result [4]	binding result [5]
anti-idiotype antibody clone B-2 (anti-ID B-2) (antibody, mouse IgG1, kappa, V domains shown, Mouse hybridoma antibody) VH: QVQLQQPGAELVRPGASVKLSCKTSGYSFTRYWMNWVKQRPGQGLEWIGMIHPSDSETRLNQKFKDKATLTVDNSSSTAYMQLSSPTSEDSAVYYCASIYYEEAWGQGTLVTVSA VL: DIQMTQSPASLSASVGETVTITCRASGNIHNYLAWYQQKQGKSPQLLVYNAKTLADSVPSRFSGSGSGTQYSLKINSLQPEDFGSYYCQHFWSTPYTFGGGTKLEIKR	binds	binds	no binding		
anti-idiotype antibody clone B-1 (anti-ID B-1) (antibody, mouse IgG2a, kappa, V domains shown, Mouse hybridoma antibody; also called FMC63-derived scFv-specific anti-idiotype antibody) VH: EVQLQQSGPELVKPGASVKMSCKASGYTFTDYYMKWVKQCHGKSLEWIGDINPNNGGTDYNQNFKGKATLTVDKSSSTAYMQLNSLTSEDSAVYYCAREGNNYGSRDAMDYWGQGTSVTVSS VL: QIVLTQSPALMSASPGEKVTMTCSASSGVIYMYWYQQKPRSSPKPWIYLTSNLASGVPARFSGSGSGTSYSLTISSMEAEDAATYYCQQWSSNPLTFGAGTKLELKR		binds	no binding	binds	
anti-idiotype antibody clone A-1 (anti-ID A-1) (antibody, mouse IgG1, kappa, V domains shown, Mouse hybridoma antibody; also called SJ25C1-derived scFv-specific anti-idiotype antibody; SJ25C1-specific anti-idiotype antibody) VH: QVQLQQPGSELVRPGGSVKLSCKASDYTFTSYWMHWVRQRPGQGLEWIGNIYPGSGGTNYDEKFKRKATLTVDTSSSTAYMQLRSLTSEDSAVYYCTREVTTVAYYYSMDYWGQGTSVTVSS VL: DIQMTQTTSSLSASLGDRVTISCRASQDISNYLNWYQQKPDGTVKLLIYYTSRLHSGVPSRFSGSGSGTDYSLTISNLEQEDIATYFCQQGKTVPFTFGSGTKLEIKR					binds
